Source: the RNAGym collection of RNA variant scans (doi:10.7554/elife.90254)

B1: LINE1-full (parent)
chain: UACGUAGGUGGUUUUCCCCUGAUAGUGCUAAGGGGGCCUGGAAGUUUGGACUGGGCAGAGCUCAACACAGCGUGGCAAAGUGGCUGUGGCUAGACUGCCUCUCUGGAUUCCUCGUCACUCAGCAGGGCAUCUCUGAGAGAAAUGCC

Variants of: B1
Experiment: self-cleavage, relative activity (ratio to wild type); higher = more cleavage; in vitro, sequencing; the parent is a self-cleaving ribozyme

| Variant | self-cleavage |
| --- | --- |
| A42G C84A | 0.15 |
| G41U U134C | 1.21 |
| A42G U112A | 2.01 |
| A42G A140U | 1.2 |
| A42G A140C | 0.93 |
| A42G A140G | 1.46 |
| G40U A79G | 1.09 |
| A42G C131A | 1.23 |
| U39C C76U | 0.7 |
| G40A G88A | 0.04 |
| G41C A59G | 0.19 |
| U39A C71U | 0.97 |
| U39C G41A | 1.41 |
| U39C A57G | 0.44 |
| G41U A129C | 1.02 |
| G41U A129G | 1.03 |
| U39C A124G | 0.53 |
| G40A U143C | 1.26 |
| U39A C116A | 1.38 |
| A42C C95U | 0.04 |
| U39A U109C | 1.1 |
| U39A U109A | 1.45 |
| U39G A142G | 0.77 |
| U39A G54A | 0.66 |

| Variant | self-cleavage |
| --- | --- |
| G41U U100G | 0.78 |
| G41U U73C | 2.76 |
| A42G C101U | 1.75 |
| U39A U130C | 1.5 |
| U39C U87A | 0.06 |
| A42G U115A | 1.24 |
| U39A U143A | 1.37 |
| A42G U62A | 0.06 |
| U39C U85C | 0.18 |
| U39C U85A | 0.05 |
| U39C G144A | 0.85 |
| A42U A77G | 1.72 |
| A42U A77U | 0.83 |
| U39G C123A | 0.91 |
| G41U G127A | 0.69 |
| U39C C133U | 1.31 |
| U39C U112A | 1.45 |
| A42G U47A | 1.19 |
| U39A C133U | 1.41 |
| U39A U45A | 1.54 |
| U39A U45C | 1.58 |
| U39C U46C | 1.56 |
| U39C U115A | 1.05 |
| U39C U115C | 1.37 |

| Variant | self-cleavage |
| --- | --- |
| A42C U73C | 0.75 |
| A42G C145U | 1.26 |
| U39C U119G | 1.36 |
| U39C U119C | 1.38 |
| U39C U119A | 1.08 |
| A42G C133A | 1.59 |
| U39A U62G | 0.04 |
| U39A U62A | 0.02 |
| U39A U62C | 0.05 |
| U39A G97A | 0.12 |
| U39A U119A | 1.46 |
| U39A U119C | 1.44 |
| G40A U81A | 1.71 |
| A42C C145U | 1.53 |
| G41A U143C | 0.95 |
| G41A U143G | 1.11 |
| G40U G58A | 0.02 |
| U39A C90A | 0.03 |
| U39A C90G | 0.04 |
| G41A C68U | 0.23 |
| G41U U132A | 1.35 |
| U39A U47C | 1.55 |
| G41A U104C | 1.53 |
| G40A U62C | 0.04 |

| Variant | self-cleavage |
| --- | --- |
| A42G A77G | 2.66 |
| A42G A77U | 1.02 |
| U39C G122U | 1.53 |
| U39C G122A | 1.25 |
| A42G U109C | 1.24 |
| A42G U109G | 0.66 |
| A42G U109A | 1.43 |
| U39C A107C | 2.09 |
| U39C G106C | 0.84 |
| U39C G106U | 0.4 |
| A42C U91C | 0.4 |
| U39C A136U | 1.25 |
| U39C A136G | 1.43 |
| G41C U100C | 2.63 |
| A42G G127A | 1.04 |
| A42G U45A | 1.4 |
| A42G U45G | 0.1 |
| G40C | 1.12 |
| G40A | 1.16 |
| G40U | 1 |
| U39G U73A | 1.88 |
| U39C U62A | 0.04 |
| A42G C98U | 0.53 |
| G40U U85G | 0.28 |

| Variant | self-cleavage |
| --- | --- |
| A42G A50G | 0.91 |
| U39G A79G | 1.28 |
| A42C A117G | 0.77 |
| U39C U91C | 0.33 |
| A42G U81C | 1.55 |
| A42G U81A | 2.11 |
| U39G A140G | 1.31 |
| G40U U108C | 1.59 |
| U39C A78G | 0.95 |
| A42G A43U | 1.56 |
| A42U A69C | 0.02 |
| G41U A64G | 0.16 |
| U39C G58U | 0.03 |
| U39C C118A | 1.33 |
| A42C U134C | 1.31 |
| G40A A138G | 1.49 |
| G40U U130C | 1.32 |
| G40U A117G | 0.97 |
| A42U A64G | 0.14 |
| U39G U81A | 1.62 |
| A42C U102C | 1.13 |
| G40U A59C | 0.82 |
| G40U A59G | 0.05 |
| A42G C111U | 1.37 |

| Variant | self-cleavage |
| --- | --- |
| G41A A78U | 2.63 |
| G41A A78G | 0.58 |
| U39C U130G | 1.75 |
| U39C U130C | 2.49 |
| A42G C146G | 0.45 |
| A42G C146U | 1.18 |
| G40U G139A | 1.17 |
| G40A A107G | 1.17 |
| G41A U108C | 1.23 |
| A42G C95U | 0.2 |
| U39G U62C | 0.1 |
| U39C A65U | 0.12 |
| G40A A57G | 0.4 |
| U39A U87A | 0.07 |
| U39C U100G | 0.59 |
| U39C U100A | 0.53 |
| U39C U100C | 2.36 |
| U39G U45C | 1.82 |
| G40A A136U | 1.04 |
| A42U A79G | 1.16 |
| U39A U81C | 1.39 |
| U39A U52A | 1.4 |
| A42G A67G | 0.88 |
| G41A C95U | 0.12 |

| Variant | self-cleavage |
| --- | --- |
| A42G G48A | 0.85 |
| G41A U96C | 0.11 |
| G40U A67G | 0.21 |
| U39C G127A | 1.03 |
| A42G C56U | 0.26 |
| U39C A42G | 1.44 |
| G40U U134C | 1.6 |
| G40A U109C | 0.88 |
| G40A U119A | 0.94 |
| G40A U73A | 0.81 |
| A42G C68U | 0.18 |
| A42C C110A | 1.68 |
| U39G A65C | 0.04 |
| G41C A138G | 0.97 |
| A42G U100A | 1.28 |
| A42G U100C | 1.54 |
| G41U C98U | 0.12 |
| G40A A59U | 0.54 |
| U39C G60A | 0.02 |
| G41C U45C | 0.68 |
| U39C C110G | 0.51 |
| U39A G53A | 1.33 |
| A42G A121C | 0.84 |
